Laboratory results as given in patent US20240116985A1 (published 2024).
Starred links: 1 amine or outer side, 2 acyl side, 3 side chain; linkers in the order of their positions; H or OH if unused. Positions of bridges follow the written chain, without caps; N, C: chain ends. Non-standard residues stand in square brackets, D forms with d. Primed or numbered codes have the meaning given here. ξ: configuration not given here. PyrS2″ = (S)-3-amino-1-((pent-4-en-1-yloxy)carbonyl)pyrrolidine-3-carboxylic acid (stapling residue), C=CCCCOC(=O)N1CC[C@@](N[*:1])(C(=O)[*:2])C1; B5(18) = 2,2-bis(4-pentenyl)glycine (2-amino-2-(pent-4-en-1-yl)hept-6-enoic acid), stitching residue, C=CCCCC(CCCC=C)(N[*:1])C(=O)[*:2]; B5(4) = 2,2-bis(4-pentenyl)glycine = 2-amino-2-(pent-4-en-1-yl)hept-6-enoic acid (stitching residue), C=CCCCC(CCCC=C)(N[*:1])C(=O)[*:2]; TfeGA = (S)-2-amino-3-((carboxymethyl)(2,2,2-trifluoroethyl)amino)propanoic acid, O=C([C@H](CN(CC(=O)[*:3])CC(F)(F)F)N[*:1])[*:2]; PyrS2 = (S)-3-amino-1-((pent-4-en-1-yloxy)carbonyl)pyrrolidine-3-carboxylic acid, C=CCCCOC(=O)N1CC[C@@](N[*:1])(C(=O)[*:2])C1; B5(7) = 2-amino-2-(pent-4-en-1-yl)hept-6-enoic acid, two olefinic side chains, C=CCCCC(CCCC=C)(N[*:1])C(=O)[*:2]; B5(3) = 2,2-bis(4-pentenyl)glycine (stitching residue), C=CCCCC(CCCC=C)(N[*:1])C(=O)[*:2]; Phe(3-COOH) = N[C@@H](Cc1cccc(C(=O)O)c1)C(=O)O; Phe(2-CF3) = N[C@@H](Cc1ccccc1C(F)(F)F)C(=O)O; Phe(2-Cl) = N[C@@H](Cc1ccccc1Cl)C(=O)O; Bta = N[C@@H](Cc1csc2ccccc12)C(=O)O; αAllylPro = C=CC[C@@]1(C(=O)O)CCCN1; tBuAla = CC(C)(C)C[C@H](N)C(=O)O; 3Thi = N[C@@H](Cc1ccsc1)C(=O)O; Cha = N[C@@H](CC1CCCCC1)C(=O)O; S8 = C=CCCCCCC[C@](C)(N)C(=O)O; ξβ3hD = NC(CC(=O)O)CC(=O)O; hSer = N[C@@H](CCO)C(=O)O

Assays:
Test in all cases: cell-based or functional assay
[1] = target: T1, B-cat-Halo (NanoBRET construct expressed in HEK293 cells) (UniProt P35222 1-781, HaloTag NanoBRET 618 Ligand bound in the assay)
T1 sequence (looked up): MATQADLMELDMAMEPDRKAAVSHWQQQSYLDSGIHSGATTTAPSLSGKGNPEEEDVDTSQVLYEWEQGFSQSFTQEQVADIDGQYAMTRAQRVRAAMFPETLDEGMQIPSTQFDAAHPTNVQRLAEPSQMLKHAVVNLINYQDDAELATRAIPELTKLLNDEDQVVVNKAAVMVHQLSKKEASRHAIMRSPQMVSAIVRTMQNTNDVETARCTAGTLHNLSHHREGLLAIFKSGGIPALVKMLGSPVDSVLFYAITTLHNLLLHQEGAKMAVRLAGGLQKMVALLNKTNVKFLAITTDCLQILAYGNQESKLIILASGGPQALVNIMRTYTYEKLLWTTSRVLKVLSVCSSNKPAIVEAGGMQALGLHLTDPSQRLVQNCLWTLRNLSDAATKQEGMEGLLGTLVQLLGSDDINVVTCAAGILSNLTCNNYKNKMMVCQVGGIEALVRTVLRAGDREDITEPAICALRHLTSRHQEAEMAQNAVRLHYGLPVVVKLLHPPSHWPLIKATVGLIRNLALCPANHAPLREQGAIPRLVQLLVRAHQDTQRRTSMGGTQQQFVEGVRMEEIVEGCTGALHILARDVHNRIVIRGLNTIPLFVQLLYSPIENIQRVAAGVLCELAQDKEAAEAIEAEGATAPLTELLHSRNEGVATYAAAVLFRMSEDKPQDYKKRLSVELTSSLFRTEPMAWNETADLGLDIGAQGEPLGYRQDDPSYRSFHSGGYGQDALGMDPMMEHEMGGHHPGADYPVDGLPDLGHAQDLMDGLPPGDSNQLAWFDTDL

[2] = target: T2, beta-catenin in DLD1 TCF/LEF luciferase reporter cells (UniProt P35222 1-781)
T2 sequence (looked up): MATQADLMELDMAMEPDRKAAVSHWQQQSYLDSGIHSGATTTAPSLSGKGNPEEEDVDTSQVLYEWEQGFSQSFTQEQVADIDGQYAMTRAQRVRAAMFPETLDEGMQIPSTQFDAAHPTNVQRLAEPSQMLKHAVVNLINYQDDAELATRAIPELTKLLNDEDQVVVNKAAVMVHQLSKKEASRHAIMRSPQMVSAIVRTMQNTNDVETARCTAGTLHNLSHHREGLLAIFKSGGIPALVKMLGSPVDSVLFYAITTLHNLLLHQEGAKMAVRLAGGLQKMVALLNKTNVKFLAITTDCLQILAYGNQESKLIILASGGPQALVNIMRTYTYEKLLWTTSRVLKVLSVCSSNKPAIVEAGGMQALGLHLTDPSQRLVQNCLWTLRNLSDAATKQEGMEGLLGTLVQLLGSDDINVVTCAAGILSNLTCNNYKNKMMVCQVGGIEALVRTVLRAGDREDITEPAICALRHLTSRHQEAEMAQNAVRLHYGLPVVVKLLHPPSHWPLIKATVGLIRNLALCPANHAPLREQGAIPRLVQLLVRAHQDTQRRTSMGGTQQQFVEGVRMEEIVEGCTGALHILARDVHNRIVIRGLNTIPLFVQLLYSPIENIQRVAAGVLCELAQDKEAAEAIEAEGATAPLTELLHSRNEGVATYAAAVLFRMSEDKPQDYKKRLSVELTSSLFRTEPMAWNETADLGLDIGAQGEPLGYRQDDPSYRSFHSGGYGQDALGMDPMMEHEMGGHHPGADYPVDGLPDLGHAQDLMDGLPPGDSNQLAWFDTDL

[3] = target: T3, B-cat-Halo (UniProt P35222 1-781)
T3 sequence (looked up): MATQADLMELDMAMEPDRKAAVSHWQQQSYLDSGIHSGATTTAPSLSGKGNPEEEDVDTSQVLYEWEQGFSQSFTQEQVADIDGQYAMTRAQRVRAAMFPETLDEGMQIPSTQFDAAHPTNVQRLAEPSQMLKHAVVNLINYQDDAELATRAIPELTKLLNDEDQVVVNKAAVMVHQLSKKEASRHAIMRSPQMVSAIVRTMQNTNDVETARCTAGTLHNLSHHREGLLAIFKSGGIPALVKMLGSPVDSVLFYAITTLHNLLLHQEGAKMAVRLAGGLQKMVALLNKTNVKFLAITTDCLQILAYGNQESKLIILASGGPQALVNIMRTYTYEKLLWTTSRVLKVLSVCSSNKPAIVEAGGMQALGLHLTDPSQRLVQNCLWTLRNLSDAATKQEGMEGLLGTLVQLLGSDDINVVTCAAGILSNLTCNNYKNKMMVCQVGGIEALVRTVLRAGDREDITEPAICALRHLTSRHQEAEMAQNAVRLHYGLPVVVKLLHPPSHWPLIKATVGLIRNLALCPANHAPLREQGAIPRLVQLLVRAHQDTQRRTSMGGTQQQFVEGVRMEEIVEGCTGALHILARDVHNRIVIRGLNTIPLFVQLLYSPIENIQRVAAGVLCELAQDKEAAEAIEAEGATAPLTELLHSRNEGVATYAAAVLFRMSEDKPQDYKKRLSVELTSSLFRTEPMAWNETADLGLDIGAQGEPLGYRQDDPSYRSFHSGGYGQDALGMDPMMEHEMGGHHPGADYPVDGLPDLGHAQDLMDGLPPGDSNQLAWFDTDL

[4] = target: T4, B-cat-Halo (beta-catenin HaloTag NanoBRET construct expressed in HEK293 cells) (UniProt P35222 1-781)
T4 sequence (looked up): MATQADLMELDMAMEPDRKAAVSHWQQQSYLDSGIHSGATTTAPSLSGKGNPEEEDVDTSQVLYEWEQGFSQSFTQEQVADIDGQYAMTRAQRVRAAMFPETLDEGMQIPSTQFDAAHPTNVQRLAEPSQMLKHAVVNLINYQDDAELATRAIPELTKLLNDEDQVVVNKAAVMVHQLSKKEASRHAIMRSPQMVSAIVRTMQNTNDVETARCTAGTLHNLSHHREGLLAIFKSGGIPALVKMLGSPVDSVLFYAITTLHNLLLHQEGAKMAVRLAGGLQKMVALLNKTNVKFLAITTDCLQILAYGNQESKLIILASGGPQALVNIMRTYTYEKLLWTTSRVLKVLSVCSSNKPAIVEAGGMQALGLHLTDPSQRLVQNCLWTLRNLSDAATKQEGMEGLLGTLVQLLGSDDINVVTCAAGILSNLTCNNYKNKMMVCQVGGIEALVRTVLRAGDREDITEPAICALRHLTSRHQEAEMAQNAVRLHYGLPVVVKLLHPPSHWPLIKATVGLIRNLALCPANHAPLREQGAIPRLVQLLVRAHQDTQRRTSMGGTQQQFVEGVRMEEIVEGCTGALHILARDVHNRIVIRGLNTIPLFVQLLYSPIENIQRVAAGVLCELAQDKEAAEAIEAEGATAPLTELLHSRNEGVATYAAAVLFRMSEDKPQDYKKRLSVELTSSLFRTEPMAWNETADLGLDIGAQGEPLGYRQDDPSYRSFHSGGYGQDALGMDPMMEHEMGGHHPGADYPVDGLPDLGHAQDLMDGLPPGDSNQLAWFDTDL

Ac-[αAllylPro]D[tBuAla][B5(7)]DDAAFQ[PyrS2][3Thi][Bta]Q-NH2 (staple 1-4, 4-11) [I-764]
NanoBRET Abs IC50 [1]: 30.9 µM

Ac-[αAllylPro]D[tBuAla][B5(3)]D[TfeGA]AAFS[S8][Phe(2-Cl)][Bta][hSer]-NH2 (staple 1-4, 4-11; also: later eluting isomer) [I-999]
DLD1 reporter assay Abs IC50 [2]: 11.1 µM

Ac-[αAllylPro]D[tBuAla][B5(18)]D[TfeGA]LAFN[PyrS2″][Phe(2-Cl)][Bta]Q-NH2 (staple 1-4, 4-11) [I-1007]
DLD1 reporter assay Abs IC50 [2]: 3.3 µM

Ac-[αAllylPro]D[tBuAla][B5(7)]DDAAFQ[PyrS2][3Thi][Bta]H-NH2 (staple 1-4, 4-11) [I-772]
NanoBRET Abs IC50 [1]: > 20 µM

Ac-[αAllylPro]D[tBuAla][B5(7)]DDAAFQ[PyrS2][3Thi][Bta]Q-NH2 (staple 1-4, 4-11) [I-763]
NanoBRET Abs IC50 [1]: 21.3 µM

Ac-[αAllylPro]D[tBuAla][B5(4)]DTAAFT[PyrS2″][3Thi][Bta]Q-NH2 (staple 1-4, 4-11) [I-1166]
NanoBRET Abs IC50 [3]: 14.6 µM

Ac-[αAllylPro]D[tBuAla][B5(18)]D[TfeGA]KAFN[PyrS2″][Phe(2-Cl)][Bta]Q-NH2 (staple 1-4, 4-11) [I-1011]
DLD1 reporter assay Abs IC50 [2]: > 20 µM

Ac-[αAllylPro]D[tBuAla][B5(18)]DDAAFS[PyrS2″][Phe(2-Cl)][Bta]S-NH2 (staple 1-4, 4-11) [I-1019]
DLD1 reporter assay Abs IC50 [2]: 8.3 µM

Ac-[αAllylPro]D[Cha][B5(4)]DTAAFT[PyrS2″][3Thi][Bta]Q-NH2 (staple 1-4, 4-11) [I-1173]
NanoBRET Abs IC50 [3]: 17.2 µM

Ac-[αAllylPro]D[tBuAla][B5(3)][3Thi][TfeGA]AAFN[PyrS2″]D[Bta]Q-NH2 (staple 1-4, 4-11) [I-1001]
DLD1 reporter assay Abs IC50 [2]: > 20 µM

Ac-[αAllylPro]D[Cha][B5(4)]DTAAFT[PyrS2″][Phe(2-Cl)][Bta]Q-NH2 (staple 1-4, 4-11) [I-1175]
NanoBRET Abs IC50 [3]: 27.3 µM

Ac-[αAllylPro]D[tBuAla][B5(3)]D[Phe(3-COOH)]AAFL[PyrS2″][Phe(2-CF3)][2F3MeW]Q-NH2 (staple 1-4, 4-11) [Ac-PL3-Asp-Npg-B5-Asp-3COOHF-Ala-Ala-Phe-Leu-PyrS2-2F3MeF-2F3MeW-Gln-NH2]
NanoBRET Abs IC50 [4]: > 20 µM

Ac-[αAllylPro][ξβ3hD][tBuAla][B5(4)]D[TfeGA]AAFN[PyrS2″][3Thi][Bta]Q-NH2 (staple 1-4, 4-11) [I-1161]
NanoBRET Abs IC50 [3]: > 20 µM

Ac-[αAllylPro]D[tBuAla][B5(7)]D[TfeGA]AAFN[PyrS2][3Thi][Bta]H-NH2 (staple 1-4, 4-11) [I-770]
NanoBRET Abs IC50 [1]: 13.7 µM

Ac-[αAllylPro]D[tBuAla][B5(7)]DDAAFQ[PyrS2][3Thi][Bta]H-NH2 (staple 1-4, 4-11) [I-771]
NanoBRET Abs IC50 [1]: 37.3 µM

Ac-[αAllylPro]D[tBuAla][B5(18)]DNAAFT[PyrS2″][Phe(2-Cl)][Bta]S-NH2 (staple 1-4, 4-11) [I-1016]
DLD1 reporter assay Abs IC50 [2]: 21.4 µM
